# In article PMC9303359:
# Biological target: human Toll-like receptor 2 expressed on HEK-Blue hTLR2 cells (human) (UniProt O60603)
# Assay: flow cytometry on cells
# UniProt O60603, sequence (O60603 21-784): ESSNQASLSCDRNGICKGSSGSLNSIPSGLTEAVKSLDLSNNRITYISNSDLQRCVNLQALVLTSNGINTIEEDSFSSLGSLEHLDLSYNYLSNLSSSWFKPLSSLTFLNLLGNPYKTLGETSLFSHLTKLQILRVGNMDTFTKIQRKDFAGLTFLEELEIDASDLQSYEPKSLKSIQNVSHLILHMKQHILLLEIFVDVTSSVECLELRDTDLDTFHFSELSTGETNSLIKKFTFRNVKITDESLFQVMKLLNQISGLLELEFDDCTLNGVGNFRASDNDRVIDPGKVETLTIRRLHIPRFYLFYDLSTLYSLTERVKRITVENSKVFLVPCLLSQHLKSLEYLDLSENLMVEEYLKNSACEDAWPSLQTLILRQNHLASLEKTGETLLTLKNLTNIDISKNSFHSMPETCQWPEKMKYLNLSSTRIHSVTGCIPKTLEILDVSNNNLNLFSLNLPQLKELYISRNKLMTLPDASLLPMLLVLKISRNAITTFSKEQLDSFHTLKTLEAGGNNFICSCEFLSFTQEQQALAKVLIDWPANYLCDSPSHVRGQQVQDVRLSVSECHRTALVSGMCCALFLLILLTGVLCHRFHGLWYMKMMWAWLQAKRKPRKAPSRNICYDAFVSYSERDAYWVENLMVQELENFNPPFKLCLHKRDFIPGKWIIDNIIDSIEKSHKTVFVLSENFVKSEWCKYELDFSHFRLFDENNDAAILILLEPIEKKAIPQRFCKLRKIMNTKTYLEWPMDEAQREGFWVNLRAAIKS
substance,measurement,value
fluorescently labelled recombinant ancillary pilin 1 (rAP1 labelled with Red Mega 485) (natural protein),mean fluorescence intensity,1490
